These are literature values, as cited in publication PMC4319847.

As usually defined, the Kd is the equilibrium constant for the complex coming apart.

For series [1], the target named is SV40 NLS NLS (Simian virus 40) (UniProt P03070).
Series [2] has as its target Myc NLS NLS (Homo sapiens) (UniProt P01106).

Chain of yeast importin-α 89-530 (Q02821 89-530): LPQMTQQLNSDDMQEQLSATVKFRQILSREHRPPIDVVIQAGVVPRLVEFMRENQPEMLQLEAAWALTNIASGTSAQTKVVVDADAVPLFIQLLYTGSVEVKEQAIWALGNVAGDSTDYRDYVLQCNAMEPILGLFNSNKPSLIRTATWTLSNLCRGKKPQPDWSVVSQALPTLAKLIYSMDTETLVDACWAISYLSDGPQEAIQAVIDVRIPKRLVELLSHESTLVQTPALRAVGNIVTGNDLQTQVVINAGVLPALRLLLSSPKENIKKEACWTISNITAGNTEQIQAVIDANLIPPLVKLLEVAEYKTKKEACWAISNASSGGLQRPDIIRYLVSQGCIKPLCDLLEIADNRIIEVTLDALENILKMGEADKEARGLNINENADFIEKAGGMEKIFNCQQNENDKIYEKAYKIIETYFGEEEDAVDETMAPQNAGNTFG
Chain of SV40 NLS NLS (Simian virus 40) (P03070 whole entry, looked up): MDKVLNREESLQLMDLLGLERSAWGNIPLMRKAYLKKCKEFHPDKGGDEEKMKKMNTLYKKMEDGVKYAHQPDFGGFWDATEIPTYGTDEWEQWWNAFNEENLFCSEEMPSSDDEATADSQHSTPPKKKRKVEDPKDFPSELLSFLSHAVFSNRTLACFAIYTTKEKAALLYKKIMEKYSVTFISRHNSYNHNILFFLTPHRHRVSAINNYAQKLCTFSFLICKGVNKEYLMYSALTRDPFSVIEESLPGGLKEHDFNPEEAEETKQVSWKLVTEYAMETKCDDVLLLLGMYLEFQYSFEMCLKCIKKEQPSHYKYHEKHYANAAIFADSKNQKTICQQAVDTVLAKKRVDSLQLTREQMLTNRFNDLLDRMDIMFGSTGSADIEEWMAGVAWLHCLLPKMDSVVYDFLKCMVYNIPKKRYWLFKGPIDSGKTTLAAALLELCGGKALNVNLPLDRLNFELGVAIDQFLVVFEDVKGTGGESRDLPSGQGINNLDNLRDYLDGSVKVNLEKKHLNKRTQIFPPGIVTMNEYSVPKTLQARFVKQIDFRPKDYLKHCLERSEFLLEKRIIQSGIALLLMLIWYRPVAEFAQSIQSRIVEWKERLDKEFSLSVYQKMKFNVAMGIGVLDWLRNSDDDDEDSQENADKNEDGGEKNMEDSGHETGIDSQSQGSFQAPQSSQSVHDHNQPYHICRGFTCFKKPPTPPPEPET
Chain of Myc NLS NLS (Homo sapiens) (P01106 whole entry, looked up): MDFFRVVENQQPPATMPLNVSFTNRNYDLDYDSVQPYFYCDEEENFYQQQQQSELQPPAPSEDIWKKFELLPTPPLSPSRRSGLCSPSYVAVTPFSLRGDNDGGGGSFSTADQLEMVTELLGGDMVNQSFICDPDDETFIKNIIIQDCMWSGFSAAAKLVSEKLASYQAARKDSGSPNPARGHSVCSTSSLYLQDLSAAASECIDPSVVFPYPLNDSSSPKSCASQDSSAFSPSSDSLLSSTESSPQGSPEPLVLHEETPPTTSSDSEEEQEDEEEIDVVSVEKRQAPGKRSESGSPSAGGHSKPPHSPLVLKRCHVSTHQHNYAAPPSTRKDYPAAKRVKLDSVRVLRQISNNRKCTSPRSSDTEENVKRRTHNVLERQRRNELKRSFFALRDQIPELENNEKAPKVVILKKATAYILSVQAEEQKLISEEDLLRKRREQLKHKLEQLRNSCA

For the substance “yeast importin-α 89-530 (from UniProt Q02821)”, the dissociation constant Kd in series [1] was 9 nM; in series [2], 6 nM.
